Experimental data reported in PMC8223476 (2021).

Molecular target: Biotinylated SARS-CoV-2 (COVID-19) S protein RBD, His, Avitag (bRBD) (SARS-CoV-2, UniProt P0DTC2, biotinylated)
Assay: flow cytometry on cells

B1: C119 (IgG) (antibody, V domains shown)
VH: QVQLVQSGAEVKKPGASVKVSCKASGYTFTSYYMHWVRQAPGQGLEWMGIINPSGGSTSYAQKLQGRVTMTRDTSTSTVYMELSSLRSEDTAVYYCARANHETTMDTYYYYYYMDVWGKGTTVTVSS
VL: QSALTQPASVSGSPGQSITISCTGTSSDVGGYKYVSWYQRHPGKAPKLMIYDVSNRPSGVSNRFSGSKSGNTASLTISGLQAEDEADYYCSSYTSSSTSVVFGGGTQLTVL
Does B1 bind?
Result: binds
